Results taken from patent US10683486B2, “Methods for producing hepatocytes” (BioLamina AB, priority 2015, dated 2020).

Tests used:
[1] = test system: MAN11 derived hepatocytes; assay: Protein secretion (ELISA) and CYP p450 activity of MAN11 derived hepatocytes; type: cell-based, human; details: day 18, n=3, versus MG
Procedure: (§1) MAN11 cells, another GMP grade cell line, were plated on three different substrates. The first substrate was Matrigel® (MG), and served as a control. The second substrate was coated with 5 micrograms per square centimeter (μg/cm^2) of laminin-521 (LN-521). […] The cells were then differentiated according to the Cameron protocol.
FIG. 17 is a set of four bar graphs. […] The second row of two graphs show the metabolic function of CYP p450 activity on day 18 for CYP1A2 and CYP3A activity. No significant differences were observed across the three matrices.
(§2) Looking at both Example 4 and Example 5, the MAN11 and MAN12 cells differentiated efficiently on all three substrates, with the majority of cells (>80%) expressing albumin and CYP3A, as detected by immunostaining.

MAN12 cells = assay: Immunostaining of ALB and CYP3A in MAN12 derived cells (Example 4); type: cell-based, human; details: MAN12, Day 24 of differentiation, Cameron protocol
Procedure: as §1, with “MAN12” for “MAN11”, “a” for “another”
FIG. 14 is a set of 15 photomicrographs at 10× magnification, organized into three columns and five rows, taken on Day 24 of differentiation. […] Row A is a set of phase contrast images of morphology. The scale bars are 200 μm. Row B is a set of photomicrographs showing the immunofluorescent staining of albumin (ALB) on the three different matrices. Row C is a set of photomicrographs showing the immunofluorescent staining of cytochrome P450 3A (CYP3A). Row D is a set of photomicrographs showing the immunofluorescent staining of multidrug resistance protein 1 (MRP1). Row E is a set of photomicrographs showing immunoglobulin G control staining for sheep, mouse, and rabbit antisera.
(§3) FIG. 15 is a set of four bar graphs. The first row of two graphs show hepatocyte protein secretion for alpha fetoprotein and albumin as analyzed by ELISA on day 24 of differentiation (n=3). No significant differences were observed across the three matrices. The second row of two graphs show the metabolic function of CYP p450 activity on days 18, 20, and 24 for CYP1A2 and CYP3A activity.

[2] = test system: MAN12 derived hepatocytes; assay: Protein secretion (ELISA) and CYP p450 activity of MAN12 derived hepatocytes; type: cell-based, human; details: CYP1A2 and CYP3A activity, days 18, 20 and 24
Procedure: as §1, with “MAN12” for “MAN11”, “a” for “another”
as §3, §2

hESC-derived hepatocytes = assay: Biliary efflux of CDFDA; type: cell-based, human; details: 2 μM CDFDA for 30 minutes; versus the MG substrate
Procedure: To determine whether these cells were capable of biliary efflux, cells were treated with 5(6)-carboxy-2′,7′-dichlorofluorescein diacetate (CDFDA), which was metabolised to fluorescent CDF and effluxed by multidrug resistance associated protein 2 (MRP2). hESC-derived hepatocytes were incubated with 2 μM of 5(6)-carboxy-2′,7′dichlorofluorescein diacetate (CDFDA) for 30 minutes. Cultures were then washed with ice-cold PBS containing calcium and magnesium. Cells were either collected for imaging or retained for quantification of efflux. For fluorescent quantification, hepatic maturation was replaced and cells incubated at 37 degrees Celsius for 30 minutes. The efflux of CDFDA from cells into media was measured by fluorescence spectroscopy at […] using a FLUOStar Omega multi-mode microplate reader.
The results are shown in the bottom row (C) of photomicrographs.

[3] = test system: stem cell derived hepatocytes; assay: CYP3A and CYP1A2 activity using pGlo technology; type: cell-based, human; details: days 16-26
Procedure: Given that cell organisation and cell division are important factors in hepatocyte function, hepatocyte metabolic capacity in vitro was studied. Stem cell derived hepatocytes were first examined for cytochrome P450 expression using well characterised antisera. CYP3A and CYP1A2 activity were measured from days 16-26 using pGlo technology. CYP activity was expressed as relative light units (RLU) per milliliter of media per milligram of protein. Levels of significance were measured by student t-test.
All of the cells expressed high levels of each marker on each substrate.

[4] = test system: stem-cell derived hepatocytes; assay: Phase contrast morphology and MRP1/HNF4a co-immunostaining (functional organization); type: cell-based, human; details: day 24
Description: FIG. 8 is a set of nine photomicrographs from day 24 of differentiation.
The phase contrast images also indicated hepatocytes were arranged in lobule-like structures within the culture dish, reminiscent of regenerating liver.
Around these lobule structures, positive staining for MRP-1, an important basal membrane marker, was detected.

[5] = test system: H9 human embryonic stem cells (hESCs); assay: Immunofluorescent staining of OCT4 and Nanog in pluripotent stem cells on the substrates prior to differentiation; type: cell-based; details: 24 hours post-replating
Procedure: H9 human embryonic stem cells (hESCs) were cultured and maintained in a humidified 37° C., 5% CO2 incubator. Three different substrates were then prepared in 96-well plates. The first substrate was pre-coated with Matrigel® (MG), and served as a control. The second substrate was coated with 5 micrograms per square centimeter (μg/cm^2) of laminin-521 (LN-521).
[…] Cell cultures were fixed in 100% ice-cold methanol at −20 degrees Celsius for 30 minutes, and adjacent cells were pre-washed twice with PBS buffer at room temperature. Cell monolayers were blocked with 0.1% PBS-Tween solution containing 10% bovine serum albumin for 1 hour. Subsequently, the monolayers were incubated with primary antibodies diluted in PBS-0.1% Tween/1% BSA at 4 degrees Celsius overnight. After 24 hours, the primary antibodies were removed and the fixed monolayers were washed three times with PBS-0.1% Tween/1% BSA. Cells were incubated with appropriate secondary antibodies diluted in PBS-0.1% Tween/1% BSA for one hour at room temperature and washed with three times with PBS. Cultures were then mounted with PermaFluor™ Aqueous Mounting Medium and counterstained with NucBlue Hoescht 33342. […] The images were processed through Zeiss Axiovision SE 64 Rel 4.8 and analyzed using Zeiss Axiovision version 4.9.1.0. […]

Substance: LN-521: substrate coated with 5 μg/cm^2 of laminin-521, the protein formed by joining α5, β2 and γ1 chains
- Albumin secretion [1]: signicantly increased
- alpha fetoprotein (AFP) secretion [1]: significant reduction
- alpha fetoprotein (AFP) secretion ([1]; listed as LN-512): significantly reduced foetal protein secretion
- ALB, percentage of positive cells and standard deviation (MAN12 cells): 83.3% ± 8.5
- CYP3A, percentage of positive cells and standard deviation (MAN12 cells): 81.5% ± 8.6
- metabolic activity of MAN12 derived hepatocytes [2]: improved metabolic activity
- biliary efflux (hESC-derived hepatocytes): more active biliary efflux
- CYP1A2 activity compared with MG control [3]: significantly greater than it was on the control
- MRP-1 staining, hepatocyte organisation [4]: exhibited networks of organised hepatocytes in vitro
- Expression Levels Nanog [5]: 88.7% ± 5.4
- Expression Levels OCT4 [5]: 93.2% ± 5.9
